These binders were tested against T1, Neurotensin receptor NTS1 (HT29 cells/membranes) (human), P30989 (assay: competition, HT29 membranes). Settings: modification not given.
T1 sequence (P30989 whole entry): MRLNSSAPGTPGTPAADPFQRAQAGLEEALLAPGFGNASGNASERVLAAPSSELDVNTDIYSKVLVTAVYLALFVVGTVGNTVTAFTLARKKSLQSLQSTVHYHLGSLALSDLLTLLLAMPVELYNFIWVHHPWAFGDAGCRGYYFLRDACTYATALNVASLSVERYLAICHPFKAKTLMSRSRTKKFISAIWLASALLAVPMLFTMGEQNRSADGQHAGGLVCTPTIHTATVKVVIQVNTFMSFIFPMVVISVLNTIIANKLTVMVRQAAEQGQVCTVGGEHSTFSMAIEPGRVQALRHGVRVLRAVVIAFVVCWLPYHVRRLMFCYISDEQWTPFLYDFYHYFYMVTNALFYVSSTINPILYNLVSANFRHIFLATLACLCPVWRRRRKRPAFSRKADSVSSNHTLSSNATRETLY

| Ki [nM] | Binder |
| --- | --- |
| 0.072 | KPRRPYIL [NT-20.1] |
| 0.26 | KPRRPYIL [NT-20.2] |
| 1.55 | KPRRPYIL [DTPA(In)-NT-20.2] |
| 0.66 | KPRRPYIL [DTPA(In)-NT-20.1] |

These binders were tested against T1, Neurotensin receptor NTS1 (HT29 …) (assay: competition, HT29 cells). Settings: modification not given.

| Binder | IC50 [nM] |
| --- | --- |
| KPRRPYIL [DOTA(Y)-LB119] | 9.9 |
| KPRRPYIL [DOTA(Ga)-LB119] | 7.5 |
| KPRRPYIL [DTPA(In)-NT-20.1] | 6.73 |
| KPRRPYIL [DOTA(In)-LB119] | 14.1 |

Continued, values first:

| IC50 [nM] | Binder |
| --- | --- |
| 0.82 | KPRRPYIL [NT-20.1] |
| 2.46 | KPRRPYIL [NT-20.2] |
| 41.2 | KPRRPYIL [DTPA(In)-NT-20.2] |
